In this assay the target is T1, recombinant COMA (Ctf19-Okp1-Mcm21-Ame1) inner kinetochore sub-complex (budding yeast (S. cerevisiae), UniProt P53298 1-406; P38313 1-324; Q02732 1-369; Q06675 1-368).
T1 construct: Okp1, budding yeast, essential COMA component; His-Okp1 printed as 49 kDa; Ame1, budding yeast, essential COMA component; printed as 37 kDa; Ctf19, budding yeast, non-essential COMA component; 'coding regions' cloned; printed as 43 kDa; Mcm21, budding yeast, non-essential COMA component; also called COMA components; source: E. coli RosettaGami2(DE3)pLysS, four subunits co-expressed, purified …
T1 sequence (P53298 whole entry, chain 1 of 4): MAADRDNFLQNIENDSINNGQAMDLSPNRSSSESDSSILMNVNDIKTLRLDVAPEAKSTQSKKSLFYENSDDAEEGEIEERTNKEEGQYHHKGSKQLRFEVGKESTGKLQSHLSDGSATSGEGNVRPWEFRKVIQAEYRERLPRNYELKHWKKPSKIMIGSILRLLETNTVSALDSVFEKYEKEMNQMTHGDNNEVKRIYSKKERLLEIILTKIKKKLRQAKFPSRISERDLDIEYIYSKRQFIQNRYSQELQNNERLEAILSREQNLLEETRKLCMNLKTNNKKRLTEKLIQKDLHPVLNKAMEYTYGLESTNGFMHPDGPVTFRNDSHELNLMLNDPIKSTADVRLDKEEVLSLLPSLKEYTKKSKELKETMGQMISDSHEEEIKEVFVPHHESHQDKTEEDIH
T1 sequence (P38313 whole entry, chain 2 of 4): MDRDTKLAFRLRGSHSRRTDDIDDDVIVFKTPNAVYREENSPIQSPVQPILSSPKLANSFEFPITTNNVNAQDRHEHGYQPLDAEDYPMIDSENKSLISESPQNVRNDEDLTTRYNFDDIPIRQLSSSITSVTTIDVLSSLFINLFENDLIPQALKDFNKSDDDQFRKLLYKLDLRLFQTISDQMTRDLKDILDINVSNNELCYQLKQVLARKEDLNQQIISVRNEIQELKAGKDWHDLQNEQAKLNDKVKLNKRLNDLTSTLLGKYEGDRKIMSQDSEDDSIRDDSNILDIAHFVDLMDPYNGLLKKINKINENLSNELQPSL
T1 sequence (Q02732 whole entry, chain 3 of 4): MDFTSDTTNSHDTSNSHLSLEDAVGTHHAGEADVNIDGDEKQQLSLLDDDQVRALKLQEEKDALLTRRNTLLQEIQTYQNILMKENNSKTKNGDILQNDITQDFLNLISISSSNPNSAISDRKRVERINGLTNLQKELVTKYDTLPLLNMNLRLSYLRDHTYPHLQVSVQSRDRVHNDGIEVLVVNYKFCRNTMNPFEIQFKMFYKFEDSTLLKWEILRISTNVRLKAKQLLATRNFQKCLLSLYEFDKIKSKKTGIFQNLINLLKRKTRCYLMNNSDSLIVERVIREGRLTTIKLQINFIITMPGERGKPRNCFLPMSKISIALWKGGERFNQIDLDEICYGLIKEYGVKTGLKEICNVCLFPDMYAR
T1 sequence (Q06675 whole entry, chain 4 of 4): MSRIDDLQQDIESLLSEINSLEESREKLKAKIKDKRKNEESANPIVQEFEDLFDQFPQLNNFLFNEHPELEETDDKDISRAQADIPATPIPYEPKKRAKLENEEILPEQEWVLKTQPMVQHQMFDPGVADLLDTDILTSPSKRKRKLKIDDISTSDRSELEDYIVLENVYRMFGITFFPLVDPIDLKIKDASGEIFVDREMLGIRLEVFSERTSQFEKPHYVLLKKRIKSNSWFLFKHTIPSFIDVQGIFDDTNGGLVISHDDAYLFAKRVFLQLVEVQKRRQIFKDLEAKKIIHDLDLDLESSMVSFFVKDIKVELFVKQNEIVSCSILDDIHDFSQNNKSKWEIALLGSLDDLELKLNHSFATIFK
As to the kind of experiment: pull-down; GST fusion proteins incubated with purified COMA in 50 mM HEPES-NaOH pH 7.4, 150 mM NaCl, 5% glycerol, 0.05% Igepal, 2 mM DTT, 0.5 mM EDTA, 20 min at 4°C, then 1 h on GST-Trap Agarose at 4°C, three washes; Coomassie blue staining, anti-His western blot and mass spectrometry. The conditions noted are these: both partners purified. In general terms: A western blot detects proteins with antibodies after separation by electrophoresis.

B1: GST-Sli15 (393-698 aa) (domain or fragment, budding yeast (S. cerevisiae), UniProt P38283 393-698, looked up)
chain: KLTTHKKLAIIAEQKKKSKHSSDVHKTGSRPHSISPTKISVDSSSPSKEVKNYYQSPVRGYLRPTKASISPNKNKNLTTSQTPHRLKIKEKTLRKLSPNIADISKPESRKSKNYRLTNLQLLPPAEAERDDLKKKFDKRLSGIMRSQQEHHRRKQEKQKRMSHLEQDLKKQTSFSNDYKDIRLKESLAPFDNHVRDTINKNTAFSTDNILATINTVDHREIIGNVTPKIASVNDSLPEINTDSEDEASVTLAAWAKSPYLQEQLIRQQDINPQTIFGPIPPLHTDEIFPNPRLNRLKPRQIVPKRS
notes: Sli15 (yeast INCENP), budding yeast, residues 393-698; Printed size 60 kDa; also called pGEX6P-1-GST-SLI15 (393-698); source: E. coli RosettaGami2, purified (GSTrap FF, Superdex 200)
B1: the binding result is reported as “binds”.

B2: GST-Sli15 (1-401 aa) (domain or fragment, budding yeast (S. cerevisiae), UniProt P38283 1-401, looked up)
chain: MDWAIKAARKKTQRKPGSTRSIIETLDDLNNLTTDAHSEINQRLYESSEWLRNNVYMNTLKYEDKKMEESLISPENTHNKMDVEFPKMKGEYELSNSQNDAAKDVTKTPRNGLHNDKSITPKSLRRKEVTEGMNRFSIHDTNKSPVEPLNSVKVDANESEKSSPWSPYKVEKVLRESSKTSESPINTKRFDNQTWAAKEEMENEPILQALKKAESVKVKPPPNSGIARSQRRSNMFVPLPNKDPLIIQHIPPTKSSGSIPKVRTVKESPIAFKKKSTINSPAIRAVENSDTAGSTKASSVFDRLSSIPTKSFENKISRGNVGHKYSSSSIDLTGSPMKKVSQKFKSINSTDTDMQEALRDIFSVKNKITKNNSPKGKNSRKSSIPRFDKTSLKLTTHKKLA
notes: Printed size 72 kDa; source: E. coli RosettaGami2, purified (GSTrap FF, Superdex 200)
B2: the binding result is “binds”.

The record behind these values is PMC6509284, “Aurora B-INCENP Localization at Centromeres/Inner Kinetochores Is Required for Chromosome Bi-orientation in Budding Yeast” (Current Biology, 2019).
